Paper PMC3034641 (Cancer research, 2010)

B1: purified recombinant human CCL21 (Chemicon) (ligand, UniProt O00585 24-134, looked up)
chain: SDGGAQDCCLKYSQRKIPAKVVRSYRKQEPSLGCSIPAILFLPRKRSQAELCADPKELWVQQLMQHLDKTPSPQKPAQGCRKDRGASKTGKKGKGSKGCKRTERSQTPKGP

Tests used:
[1] = molecular target: T1, THAP1(1-213)-Fc fusion protein (human, UniProt Q9NVV9 1-213); assay: SPR
T1 sequence (looked up): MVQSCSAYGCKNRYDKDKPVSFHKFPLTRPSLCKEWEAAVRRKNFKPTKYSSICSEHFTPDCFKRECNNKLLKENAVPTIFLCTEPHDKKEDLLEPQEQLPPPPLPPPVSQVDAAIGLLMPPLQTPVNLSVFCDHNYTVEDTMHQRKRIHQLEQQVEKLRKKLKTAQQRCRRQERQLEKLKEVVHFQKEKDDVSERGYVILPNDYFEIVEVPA

[2] = molecular target: B1; assay: SPR

Binder | Kd [1] [nM] | Kd [2] [nM]
B1 | 87 | –
Chemotrap-1 (THAP1(140-213)-Fc), purified from CHO cells (Fc fusion, human, UniProt Q9NVV9 140-213, looked up) EDTMHQRKRIHQLEQQVEKLRKKLKTAQQRCRRQERQLEKLKEVVHFQKEKDDVSERGYVILPNDYFEIVEVPA | – | 102
